Target: SCM-2 on the surface of S. canis strain IMT40096 (Streptococcus canis (endogenous in strain IMT40096))
Test: flow cytometry on cells; S. canis bacteria (mid-exponential phase) incubated with FITC-labeled human fibrinogen in PBS, 30 min at 37°C, fixed; MFI normalized to SCM-1 S. canis G361; scm2 knock-out of IMT40096 as control

FITC-labeled human fibrinogen (from UniProt P02671 36-866; P02675 45-491; P02679 27-453) (complex)
fold of fluorescence against S. canis G361: > 3 fold of G361

From PMC10641296
